B1: Single stranded nucleic acid binding protein (Sbp1), wild type, galactose-inducible with ZZ (protein A) tag, from wild-type yeast R153 [modified: arginine-methylated in yeast … (parent)
chain 1: MSAEIEEATNAVNNLSINDSEQQPRAPTHKTVIDPEDTIFIGNVAHECTEDDLKQLFVEEFGDEVSVEIPIKEHTDGHIPASKHALVKFPTKIDFDNIKENYDTKVVKDREIHIKRARTPGQMQRGGFRGRGGFRGRGGFRGGFRGGYRGGFRGRGNFRGRGGARGGFNGQKREKIPLDQMERSKDTLYINNVPFKATKEEVAEFFGTDADSISLPMRKMRDQHTGRIFTSDSANRGMAFVTFSGENVDIEAKAEEFKGKVFGDRELTVDVAVIRPENDEEEIEQETGSEEKQE
chain 2: MTDETAHPTQSASKQESAALKQTGDDQQESQQQRGYTNYNNGSNYTQKKPYNSNRPHQQRGGKFGPNRYNNRGNYNGGGSFRGGHMGANSSNVPWTGYYNNYPVYYQPQQMAAAGSAPANPIPVEEKSPVPTKIEITTKSGEHLDLKEQHKAKLQSQERSTVSPQPESKLKETSDSTSTSTPTPTPSTNDSKASSEENISEAEKTRRNFIEQVKLRKAALEKKRKEQLEGSSGNNNIPMKTTPENVEEKGSDKPEVTEKTKPAEEKSAEPEVKQETPAEEGEQGEKGQIKEESTPKVLTFAERLKLKKQQKEREEKTEGKENKEVPVQEETKSAIESAPVPPSEQVKEETEVAETEQSNIDESATTPAIPTKSDEAEAEVEAEAGDAGTKIGLEAEIETTTDETDDGTNTVSHILNVLKDATPIEDVFSFNYPEGIEGPDIKYKKEHVKYTYGPTFLLQFKDKLNVKADAEWVQSTASKIVIPPGMGRGNRSRDSGRFGNNSSRGHDFRNTSVRNMDDRANSRTSSKRRSKRMNDDRRSNRSYTSRRDRERGSYRNEEKREDDKPKEEVAPLVPSANRWVPKFKSKKTEKKLAPDGKTELLDKDEVERKMKSLLNKLTLEMFDAISSEILAIANISVWETNGETLKAVIEQIFLKACDEPHWSSMYAQLCGKVVKELNPDITDETNEGKTGPKLVLHYLVARCHAEFDKGWTDKLPTNEDGTPLEPEMMSEEYYAAASAKRRGLGLVRFIGFLYRLNLLTGKMMFECFRRLMKDLTDSPSEETLESVVELLNTVGEQFETDSFRTGQATLEGSQLLDSLFGILDNIIQTAKISSRIKFKLIDIKELRHDKNWNSDKKDNGPKTIQQIHEEEERQRQLKNNSRSNSRRTNNSSNRHSFRRDAPPASKDSFITTRTYSQRNSQRAPPPKEEPAAPTSTATNMFSALMGESDDEE

Variants of: B1
Assay: glutathione pull-down, PAP blot band quantified
Conditions: with eukaryotic translation initiation factor 4G1 fused to GST (eIF4G1-GST) [yeast]; purified eIF4G1-GST incubated with yeast lysate; n = 3; parent: 100; read off a plot

percent of parent [% binding]	Variant
25	chain 1 R125A R129A R131A R135A R137A R141A R145A R149A R153A R155A R159A R161A R165A

— publication PMC6916386
